Patent publication US20050196403A1
One block for each substance: values may come before it.

What was measured:
HLA-A*2401 (Human) [1] = molecular target: HLA-A*2401 (Human)
HLA-A*0201 (Human) [2] = assay: competition vs 125I probe, purified HLA
HLA-A*2401 (human) [3] = assay: competition with 125I probe peptide, purified HLA class I
HLA-A*0203 (Human) = assay: competition vs 125I probe, purified HLA
HLA-A*0206 (Human) = assay: competition vs 125I probe, purified HLA
HLA-A*0201 (Human) [4] = assay: competition vs 125I standard peptide, purified HLA
HLA-A*0202 (Human) = assay: competition vs 125I probe, purified HLA

Substance: p53 peptide … (position 106, 9 amino acids)
- binding affinity ratio (IC50 of standard peptide/IC50 of test peptide) (HLA-A*2401 (Human) [1]): 0.02

Substance: p53.129B7V9 ALNKMFBQV (peptide)
- IC50 (HLA-A*0203 (Human)): 23 nM
- IC50 (HLA-A*0206 (Human)): 49 nM

Substance: ELNEALEL (peptide)
- binding affinity ratio (ratio to standard peptide) (HLA-A*0201 (Human) [4]): -0.0002

Substance: p53 peptide TFSDLWKL (position 18, 8 amino acids)
- binding affinity ratio (IC50 of standard peptide/IC50 of test peptide) (HLA-A*2401 (Human) [1]): 0.0016

Substance: PLDGEYFT (peptide)
- binding affinity ratio (ratio to standard peptide) (HLA-A*0201 (Human) [4]): -0.0002

Substance: p53 peptide SYGFRLGF (position 106, 8 amino acids)
- binding affinity ratio (IC50 of standard peptide/IC50 of test peptide) (HLA-A*2401 (Human) [1]): 0.028

Substance: EALELKDA (peptide)
- binding affinity ratio (ratio to standard peptide) (HLA-A*0201 (Human) [4]): -0.0002

Substance: p53 peptide TYQGSYGF (position 102, 8 amino acids)
- binding affinity ratio (IC50 of standard peptide/IC50 of test peptide) (HLA-A*2401 (Human) [1]): 0.11

The remaining lines, values ahead:

- binding affinity ratio (IC50 of standard peptide/IC50 of test peptide) (HLA-A*2401 (Human) [1]): 0.12
Substance: p53 peptide … (position 102, 10 amino acids)

- IC50 (HLA-A*0201 (Human) [2]): 5000 nM
Substance: p53.69 AAPPVAPA (peptide)

- binding affinity ratio (standard IC50 / test IC50) (HLA-A*2401 (human) [3]): -0.0004
Substance: RFEMFREL (p53 position 337) (peptide)

- binding affinity ratio (IC50 of standard peptide/IC50 of test peptide) (HLA-A*2401 (Human) [1]): -0.0004
Substance: p53 peptide RFEMFREL (position 337, 8 amino acids)

- binding affinity ratio (IC50 of standard peptide/IC50 of test peptide) (HLA-A*2401 (Human) [1]): 0.0001
Substance: p53 peptide … (position 117, 10 amino acids)

- binding affinity ratio (IC50 of standard peptide/IC50 of test peptide) (HLA-A*2401 (Human) [1]): 5.1
Substance: p53 peptide … (position 125, 10 amino acids)

- IC50 (HLA-A*0202 (Human)): 71 nM
- IC50 (HLA-A*0203 (Human)): 15 nM
- IC50 (HLA-A*0206 (Human)): 67 nM
Substance: p53.135B1B7 BQLAKTBPV (peptide)

- binding affinity ratio (standard IC50 / test IC50) (HLA-A*2401 (human) [3]): 0.0016
Substance: TFSDLWKL (p53 position 18) (peptide)

- binding affinity ratio (IC50 of standard peptide/IC50 of test peptide) (HLA-A*0301 (Human)): 0.0046
Substance: p53 peptide HMTEVVRR (position 168)

- IC50 (HLA-A*0201 (Human) [2]): 46 nM
- IC50 (HLA-A*0203 (Human)): 7.7 nM
- IC50 (HLA-A*0206 (Human)): 64 nM
Substance: p53.135B1L2B7 BLLAKTBPV (peptide)
